Source: patent US20230374116A1 (ROSALIND FRANKLIN INSTITUTE, published 2023)

Legend:
Test in all cases: cell-based or functional assay
[1] = target: Spike protein on live SARS-CoV-2 Alpha strain (SARS-CoV-2 Alpha (B.1.1.7), UniProt P0DTC2 14-1273)
[2] = target: Spike protein on live SARS-CoV-2 Delta strain (SARS-CoV-2 Delta (B.1.617.2), UniProt P0DTC2 14-1273)
[3] = target: Spike protein on live SARS-CoV-2 Beta strain (SARS-CoV-2 Beta (B.1.351), UniProt P0DTC2 14-1273)

B1: C5 trimer (VHH)
chain: QVQLVESGGGSVQAGGSLTLSCVASGVTLGRHAIGWFRQAPGKERERVSCIRTFDGITSYVESTKGRFTISSNNAMNTVYLQMNSLKPEDTAVYFCALGVTAACSDNPYFWGQGTQVTVSSGSGSGSQVQLVESGGGSVQAGGSLTLSCVASGVTLGRHAIGWFRQAPGKERERVSCIRTFDGITSYVESTKGRFTISSNNAMNTVYLQMNSLKPEDTAVYFCALGVTAACSDNPYFWGQGTQVTVSSGSGSGSQVQLVESGGGSVQAGGSLTLSCVASGVTLGRHAIGWFRQAPGKERERVSCIRTFDGITSYVESTKGRFTISSNNAMNTVYLQMNSLKPEDTAVYFCALGVTAACSDNPYFWGQGTQVTVSS
notes: also called trimeric C5 nanobody; C5-6GS-C5-6GS-C5
ND 50 MN assay, live virus [1]: 0.25 nM | ND 50 MN assay, live virus [2]: 0.02 nM

B2: C1 trimer (VHH)
chain: QVQLVESGGGLVQPGGSLRLSCAASGFTNDFYSIAWFRQAPGKEREGVSWLSVSDNTPTYVDSVKDRFTISRHNANNTVYLQMNMLKPEDTAIYYCAAGRFAGRDTWPSSYDYWGQGTQVTVSSGSGSGSQVQLVESGGGLVQPGGSLRLSCAASGFTNDFYSIAWFRQAPGKEREGVSWLSVSDNTPTYVDSVKDRFTISRHNANNTVYLQMNMLKPEDTAIYYCAAGRFAGRDTWPSSYDYWGQGTQVTVSSGSGSGSQVQLVESGGGLVQPGGSLRLSCAASGFTNDFYSIAWFRQAPGKEREGVSWLSVSDNTPTYVDSVKDRFTISRHNANNTVYLQMNMLKPEDTAIYYCAAGRFAGRDTWPSSYDYWGQGTQVTVSS
ND 50 MN assay, live virus [1]: 8.2 nM | ND 50 MN assay, live virus [3]: 4.5 nM | ND 50 MN assay, live virus [2]: 3.1 nM

B3: A8 trimer (bispecific antibody)
chain: QVQLVESGGGLVQAGGSLRLSCAASGGTFSTAAMGWFRQAPGEERECVASIGWRGVRTWYADSVKGRFTISRDNPQNTVYLQMNNLKSGDTAVYYCAASVGNYGLPWAHFEYDFWGQGIQVTVSSGSGSGSQVQLVESGGGLVQAGGSLRLSCAASGGTFSTAAMGWFRQAPGEERECVASIGWRGVRTWYADSVKGRFTISRDNPQNTVYLQMNNLKSGDTAVYYCAASVGNYGLPWAHFEYDFWGQGIQVTVSSGSGSGSQVQLVESGGGLVQAGGSLRLSCAASGGTFSTAAMGWFRQAPGEERECVASIGWRGVRTWYADSVKGRFTISRDNPQNTVYLQMNNLKSGDTAVYYCAASVGNYGLPWAHFEYDFWGQGTQVTVSSKHHHHHH
ND 50 MN assay, live virus [1]: 0.1 nM | ND 50 MN assay, live virus [3]: 0.2 nM | ND 50 MN assay, live virus [2]: 0.1 nM

B4: H3 trimer (VHH)
chain: QVQLVESGGGLVKTGGSLRLSCAASGRTFSTYSMGWFRQAPGKEREFVAGMRWTGSSTFYSDSVKGRFTVSRNNAKDTVYLHMNSLKPEDTAVYYCAITTIVRAYYTEYTEADFGSWGQGTQVTVSSGAVLAPQVQLVESGGGLVKTGGSLRLSCAASGRTFSTYSMGWFRQAPGKEREFVAGMRWTGSSTFYSDSVKGRFTVSRNNAKDTVYLHMNSLKPEDTAVYYCAITTIVRAYYTEYTEADFGSWGQGTQVTVSSGSGSGSQVQLVESGGGLVKTGGSLRLSCAASGRTFSTYSMGWFRQAPGKEREFVAGMRWTGSSTFYSDSVKGRFTVSRNNAKDTVYLHMNSLKPEDTAVYYCAITTIVRAYYTEYTEADFGSWGQGTQVTVSS
ND 50 MN assay, live virus [1]: 0.6 nM | ND 50 MN assay, live virus [2]: 0.3 nM
